Molecular target: T1, human platelet α2β1 integrin (immobilized on microtiter plates) (human, UniProt P17301 30-1181; P05556 21-798)
T1 construct: plates custom-coated with human platelet α2β1 by GTI Inc; also called immobilized α2β1 integrin; α2β1-coated plates
Assay: competition with Eu-TMC-2206 on human platelet α2β1-coated plate
Procedure: (§1) Each labeled antibody mixture was applied to a separate PD-10 column (GE Biosciences, Piscataway, N.J.) pre-equilibrated with Running Buffer (50 mM Tris, pH 7.4 and 138 mM NaCl). Fractions (0.5 mL) were collected and assayed for total protein (Bradford reagent; Bio-Rad Laboratories, Hercules, Calif.) using a SpectraMax 384 absorbance plate reader and for europium after 1:10.000 dilution in DELFIA Enhancement Solution (Perkin-Elmer) by time-resolved fluorescence (TRF) using a Victor2 multi-label plate reader (Perkin Elmer). The fractions that were positive for both protein and Eu label were pooled and applied to new PD-10 columns and samples collected and assayed for total protein and for europium content by TRF calibrated against a europium standard solution (Perkin-Elmer) to calculate the fluor: protein ratio. […] After incubating the sealed plates for 1 hr at 37° C. to allow binding to reach equilibrium, 2 μL samples were transferred from each well into a fresh well containing DELFIA Enhancement Solution (100 μL/well; Perkin-Elmer) for the measurement of free (unbound) label. Enhancement Solution (100 μL/well) was added to the emptied wells for the measurement of bound label. The plate was shaken (Titer Plate Shaker speed setting of 5 for 5 minutes at room temperature) and time-resolved fluorescent (TRF) intensities were read using a Victor2 multi-label plate reader (Perkin-Elmer Wallac, Boston, Mas.).

T1 sequence (P17301 30-1181 E534K limits assumed, chain 1 of 2): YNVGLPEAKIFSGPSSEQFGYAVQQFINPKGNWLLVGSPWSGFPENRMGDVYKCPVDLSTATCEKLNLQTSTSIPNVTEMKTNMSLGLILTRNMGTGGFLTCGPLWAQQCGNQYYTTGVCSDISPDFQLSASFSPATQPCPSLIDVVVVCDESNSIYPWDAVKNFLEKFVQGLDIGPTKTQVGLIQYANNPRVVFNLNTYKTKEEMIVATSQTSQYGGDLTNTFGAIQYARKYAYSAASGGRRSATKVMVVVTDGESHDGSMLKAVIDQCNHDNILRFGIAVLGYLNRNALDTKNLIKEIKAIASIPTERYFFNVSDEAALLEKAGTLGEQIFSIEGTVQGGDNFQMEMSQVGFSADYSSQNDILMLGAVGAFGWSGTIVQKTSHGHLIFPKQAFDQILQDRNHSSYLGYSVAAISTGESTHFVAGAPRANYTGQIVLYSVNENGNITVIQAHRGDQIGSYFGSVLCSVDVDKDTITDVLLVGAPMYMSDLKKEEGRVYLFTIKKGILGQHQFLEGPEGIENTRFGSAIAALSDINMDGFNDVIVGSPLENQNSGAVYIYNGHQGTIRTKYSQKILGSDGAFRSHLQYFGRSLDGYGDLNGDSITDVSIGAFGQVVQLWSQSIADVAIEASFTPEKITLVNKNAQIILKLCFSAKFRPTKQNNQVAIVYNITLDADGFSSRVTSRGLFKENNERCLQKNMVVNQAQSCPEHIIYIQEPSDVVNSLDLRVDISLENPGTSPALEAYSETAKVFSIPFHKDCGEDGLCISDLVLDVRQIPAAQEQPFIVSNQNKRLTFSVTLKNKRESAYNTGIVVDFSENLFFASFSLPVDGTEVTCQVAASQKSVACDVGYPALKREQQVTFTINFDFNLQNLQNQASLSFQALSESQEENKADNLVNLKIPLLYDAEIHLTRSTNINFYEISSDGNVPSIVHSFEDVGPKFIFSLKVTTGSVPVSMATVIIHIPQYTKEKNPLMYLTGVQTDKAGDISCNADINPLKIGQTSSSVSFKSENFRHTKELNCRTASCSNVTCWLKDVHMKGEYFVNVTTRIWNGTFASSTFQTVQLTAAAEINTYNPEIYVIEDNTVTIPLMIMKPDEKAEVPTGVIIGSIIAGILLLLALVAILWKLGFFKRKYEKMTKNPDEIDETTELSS
T1 sequence (P05556 21-798 limits assumed, chain 2 of 2): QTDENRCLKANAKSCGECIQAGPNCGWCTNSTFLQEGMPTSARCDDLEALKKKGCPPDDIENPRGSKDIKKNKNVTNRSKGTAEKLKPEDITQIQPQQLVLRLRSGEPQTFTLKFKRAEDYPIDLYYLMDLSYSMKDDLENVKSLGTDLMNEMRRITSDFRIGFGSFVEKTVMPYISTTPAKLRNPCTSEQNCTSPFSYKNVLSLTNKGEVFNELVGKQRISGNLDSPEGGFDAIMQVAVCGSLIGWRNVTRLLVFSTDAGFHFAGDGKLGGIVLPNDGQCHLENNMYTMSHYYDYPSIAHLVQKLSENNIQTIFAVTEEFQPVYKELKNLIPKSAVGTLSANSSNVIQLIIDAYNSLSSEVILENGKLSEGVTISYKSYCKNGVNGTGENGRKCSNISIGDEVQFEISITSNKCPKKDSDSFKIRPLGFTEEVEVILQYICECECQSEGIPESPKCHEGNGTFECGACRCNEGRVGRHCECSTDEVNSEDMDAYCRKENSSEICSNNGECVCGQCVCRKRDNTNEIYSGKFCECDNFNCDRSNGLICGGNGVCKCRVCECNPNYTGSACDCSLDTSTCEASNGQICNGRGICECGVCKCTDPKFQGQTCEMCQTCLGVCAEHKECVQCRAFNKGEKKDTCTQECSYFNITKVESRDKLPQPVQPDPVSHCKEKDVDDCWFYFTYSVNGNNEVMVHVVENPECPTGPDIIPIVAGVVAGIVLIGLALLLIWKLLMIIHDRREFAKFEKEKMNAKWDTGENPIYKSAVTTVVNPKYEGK

Row | Ki | Binder
1 | 350 pM | humanized TMC-2206 variant hVH1.0/hVL1.0Q (antibody, human IgG1, V domains shown, human IgG1/κ constant regions; also called VH 1.0 VL 1.0Q) VH: QVQLQESGPGLVKPSETLSLTCTVSGFSLTNYGIHWVRQPPGKGLEWLGVIWARGFTNYNSALMSRLTISKDNSKNQVSLKLSSVTAADTAVYFCARANDGVYYAMDYWGQGTLVTVSS VL: QFVLTQSPAFLSVTPGEKVTITCSAQSSVNYIHWYQQKPDQAPKKWIYDTSKLASGVPSRFSGSGSGTDYTFTISSLEAEDAATYYCQQWTTNPLTFGQGTKVEIK
2 | 330 pM | humanized TMC-2206 variant hVH14.0/hVL12.0Q (antibody, human IgG1, V domains shown, human IgG1/κ constant regions; also called VH 14.0 VL 12.0Q) VH: QVQLQESGPGLVKPSETLSLTCTVSGFSLTNYGIHWIRQPPGKGLEWLGVIWARGFTNYNSALMSRVTISKDNSKNQVSLKLSSVTAADTAVYYCARANDGVYYAMDYWGQGTLVTVSS VL: DFVMTQSPAFLSVTPGEKVTITCSAQSSVNYIHWYQQKPDQAPKKLIYDTSKLASGVPSRFSGSGSGTDFTFTISSLEAEDAATYYCQQWTTNPLTFGQGTKVEIK
3 | 290 pM | humanized TMC-2206 variant hVH12.0/hVL10.0 (antibody, human IgG1, V domains shown, human IgG1/κ constant regions; also called VH 12.0 VL 10.0) VH: QVQLQESGPGLVKPSETLSLTCTVSGFSLTNYGIHWIRQPPGKGLEWLGVIWARGFTNYNSALMSRLTISKDNSKNQVSLKLSSVTAADTAVYYCARANDGVYYAMDYWGQGTLVTVSS VL: DFVMTQSPAFLSVTPGEKVTITCSANSSVNYIHWYQQKPDQAPKKLIYDTSKLASGVPSRFSGSGSGTDYTFTISSLEAEDAATYYCQQWTTNPLTFGQGTKVEIK
4 | 380 pM | humanized TMC-2206 variant hVH14.0/hVL12.0 (antibody, human IgG1, V domains shown, human IgG1/κ constant regions; also called VH 14.0 VL 12.0) VH: QVQLQESGPGLVKPSETLSLTCTVSGFSLTNYGIHWIRQPPGKGLEWLGVIWARGFTNYNSALMSRVTISKDNSKNQVSLKLSSVTAADTAVYYCARANDGVYYAMDYWGQGTLVTVSS VL: DFVMTQSPAFLSVTPGEKVTITCSANSSVNYIHWYQQKPDQAPKKLIYDTSKLASGVPSRFSGSGSGTDFTFTISSLEAEDAATYYCQQWTTNPLTFGQGTKVEIK
5 | 320 pM | humanized TMC-2206 variant hVH14.0/hVL10.0 (antibody, human IgG1, V domains shown, human IgG1/κ constant regions; also called VH 14.0 VL 10.0) VH: QVQLQESGPGLVKPSETLSLTCTVSGFSLTNYGIHWIRQPPGKGLEWLGVIWARGFTNYNSALMSRVTISKDNSKNQVSLKLSSVTAADTAVYYCARANDGVYYAMDYWGQGTLVTVSS VL: DFVMTQSPAFLSVTPGEKVTITCSANSSVNYIHWYQQKPDQAPKKLIYDTSKLASGVPSRFSGSGSGTDYTFTISSLEAEDAATYYCQQWTTNPLTFGQGTKVEIK

Molecular target: T1, human platelet α2β1 integrin …
Assay: as above
Remark: another data set of the same source

Row | Ki | fold decrease (Ki) | fold decrease as measured by Ki | fold decrease in potency as measured by Ki | fold decrease in potency compared to the hVH1.0, hVL1.0 variant (Ki) | Binder
6 |  | 6.4 fold |  |  |  | humanized TMC-2206 variant hVH9.0, hVL1.0 (antibody, human IgG1, V domains shown, human IgG1/κ constant regions) VH: QVQLQESGPGLVKPSETLSLTCTVSGFSLTNYGIHWVRQPPGKGLEWIGVIWARGFTNYNSALMSRLTISVDNSKNQVSLKLSSVTAADTAVYFCARANDGVYYAMDYWGQGTLVTVSS VL: QFVLTQSPAFLSVTPGEKVTITCSANSSVNYIHWYQQKPDQAPKKWIYDTSKLASGVPSRFSGSGSGTDYTFTISSLEAEDAATYYCQQWTTNPLTFGQGTKVEIK
7 |  |  | 1.6 fold |  |  | humanized TMC-2206 variant hVH10.0/hVL1.0 (antibody, V domains shown, human IgG1/κ; also called change to Thr-H73) VH: QVQLQESGPGLVKPSETLSLTCTVSGFSLTNYGIHWVRQPPGKGLEWLGVIWARGFTNYNSALMSRLTISKDTSKNQVSLKLSSVTAADTAVYFCARANDGVYYAMDYWGQGTLVTVSS VL: QFVLTQSPAFLSVTPGEKVTITCSANSSVNYIHWYQQKPDQAPKKWIYDTSKLASGVPSRFSGSGSGTDYTFTISSLEAEDAATYYCQQWTTNPLTFGQGTKVEIK
8 |  |  |  |  | 70 fold | humanized TMC-2206 variant hVH11.0, hVL1.0 (antibody, human IgG1, V domains shown, human IgG1/κ constant regions) VH: QVQLQESGPGLVKPSETLSLTCTVSGFSLTNYGIHWVRQPPGKGLEWIGVIWARGFTNYNSALMSRLTISKDNSKNQFSLKLSSVTAADTAVYFCARANDGVYYAMDYWGQGTLVTVSS VL: QFVLTQSPAFLSVTPGEKVTITCSANSSVNYIHWYQQKPDQAPKKWIYDTSKLASGVPSRFSGSGSGTDYTFTISSLEAEDAATYYCQQWTTNPLTFGQGTKVEIK

The remaining lines, values behind:

Row | Binder | Ki | fold decrease (Ki) | fold decrease as measured by Ki | fold decrease in potency as measured by Ki | fold decrease in potency compared to the hVH1.0, hVL1.0 variant (Ki)
9 | TMC-2206 VH D100R variant antibody (antibody, V domains shown, variant murine VH-containing antibody; also called reverse charge mutant D100R) VH: QVQLKESGPGLVAPSQSLSITCTVSGFSLTNYGIHWVRQPPGKGLEWLGVIWARGFTNYNSALMSRLIITKDNSQSQVFLKMNSLQPDDSATYFCARANRGVYYAMDYWGQGTSVTVSS VL: QFVLTQSPAFLSASPGEKVTMTCSANSSVNYIHWYQQKSGTSPKKWIYDTSKLASGVPVRFSGSGSGTSYSLTISSMETEDAATYYCQQWTTNPLTFGAGTRVELK | 410 pM |  |  |  | 
10 | humanized TMC-2206 variant hVH1.0/hVL9.0 (antibody, V domains shown, human IgG1/κ; also called change of L49 to the human lysine) VH: QVQLQESGPGLVKPSETLSLTCTVSGFSLTNYGIHWVRQPPGKGLEWLGVIWARGFTNYNSALMSRLTISKDNSKNQVSLKLSSVTAADTAVYFCARANDGVYYAMDYWGQGTLVTVSS VL: QFVLTQSPAFLSVTPGEKVTITCSANSSVNYIHWYQQKPDQAPKKWIKDTSKLASGVPSRFSGSGSGTDYTFTISSLEAEDAATYYCQQWTTNPLTFGQGTKVEIK |  |  |  | 3.3 fold | 

Molecular target: T1, human platelet α2β1 integrin …
Assay: as above
Remark: another data set of the same source
Procedure: as §1

Row | Ki | fold shift in potency compared to the hVH1.0, hVL1.0 variant | Binder
11 | 440 pM | 1.3 fold | humanized TMC-2206 variant hVH4.0/hVL1.0 (antibody, human IgG1, V domains shown, human IgG1/κ constant regions) VH: QVQLQESGPGLVKPSETLSLTCTVSGFSLTNYGIHWIRQPPGKGLEWIGVIWARGFTNYNSALMSRLTISKDNSKNQVSLKLSSVTAADTAVYFCARANDGVYYAMDYWGQGTLVTVSS VL: QFVLTQSPAFLSVTPGEKVTITCSANSSVNYIHWYQQKPDQAPKKWIYDTSKLASGVPSRFSGSGSGTDYTFTISSLEAEDAATYYCQQWTTNPLTFGQGTKVEIK
12 | 118000 pM | 358 fold | humanized TMC-2206 variant hVH3.0/hVL4.0 (antibody, human IgG1, V domains shown, human IgG1/κ constant regions) VH: QVQLQESGPGLVKPSETLSLTCTVSGFSLTNYGIHWVRQPPGKGLEWLGVIWARGFTNYNSALMSRVTISVDTSKNQFSLKLSSVTAADTAVYFCARANDGVYYAMDYWGQGTLVTVSS VL: DVVMTQSPAFLSVTPGEKVTITCSANSSVNYIHWYQQKPDQAPKKWIYDTSKLASGVPSRFSGSGSGTDYTFTISSLEAEDAATYYCQQWTTNPLTFGQGTKVEIK
13 | 2600 pM | 7.9 fold | humanized TMC-2206 variant hVH4.0/hVL4.0 (antibody, human IgG1, V domains shown, human IgG1/κ constant regions) VH: QVQLQESGPGLVKPSETLSLTCTVSGFSLTNYGIHWIRQPPGKGLEWIGVIWARGFTNYNSALMSRLTISKDNSKNQVSLKLSSVTAADTAVYFCARANDGVYYAMDYWGQGTLVTVSS VL: DVVMTQSPAFLSVTPGEKVTITCSANSSVNYIHWYQQKPDQAPKKWIYDTSKLASGVPSRFSGSGSGTDYTFTISSLEAEDAATYYCQQWTTNPLTFGQGTKVEIK
14 | 202000 pM | 631 fold | humanized TMC-2206 variant hVH3.0/hVL3.0 (antibody, human IgG1, V domains shown, human IgG1/κ constant regions) VH: QVQLQESGPGLVKPSETLSLTCTVSGFSLTNYGIHWVRQPPGKGLEWLGVIWARGFTNYNSALMSRVTISVDTSKNQFSLKLSSVTAADTAVYFCARANDGVYYAMDYWGQGTLVTVSS VL: QFVLTQSPAFLSVTPGEKVTITCSANSSVNYIHWYQQKPDQAPKLLIYDTSKLASGVPSRFSGSGSGTDYTFTISSLEAEDAATYYCQQWTTNPLTFGQGTKVEIK
15 | 1340 pM | 4.2 fold | humanized TMC-2206 variant hVH4.0/hVL3.0 (antibody, human IgG1, V domains shown, human IgG1/κ constant regions) VH: QVQLQESGPGLVKPSETLSLTCTVSGFSLTNYGIHWIRQPPGKGLEWIGVIWARGFTNYNSALMSRLTISKDNSKNQVSLKLSSVTAADTAVYFCARANDGVYYAMDYWGQGTLVTVSS VL: QFVLTQSPAFLSVTPGEKVTITCSANSSVNYIHWYQQKPDQAPKLLIYDTSKLASGVPSRFSGSGSGTDYTFTISSLEAEDAATYYCQQWTTNPLTFGQGTKVEIK
16 | 12000 pM | 36 fold | humanized TMC-2206 variant hVH3.0/hVL1.0 (antibody, human IgG1, V domains shown, human IgG1/κ constant regions) VH: QVQLQESGPGLVKPSETLSLTCTVSGFSLTNYGIHWVRQPPGKGLEWLGVIWARGFTNYNSALMSRVTISVDTSKNQFSLKLSSVTAADTAVYFCARANDGVYYAMDYWGQGTLVTVSS VL: QFVLTQSPAFLSVTPGEKVTITCSANSSVNYIHWYQQKPDQAPKKWIYDTSKLASGVPSRFSGSGSGTDYTFTISSLEAEDAATYYCQQWTTNPLTFGQGTKVEIK
17 | 640 pM | 1.9 fold | humanized TMC-2206 variant hVH1.0/hVL3.0 (antibody, human IgG1, V domains shown, human IgG1/κ constant regions; also called VH1.0/VL3.0) VH: QVQLQESGPGLVKPSETLSLTCTVSGFSLTNYGIHWVRQPPGKGLEWLGVIWARGFTNYNSALMSRLTISKDNSKNQVSLKLSSVTAADTAVYFCARANDGVYYAMDYWGQGTLVTVSS VL: QFVLTQSPAFLSVTPGEKVTITCSANSSVNYIHWYQQKPDQAPKLLIYDTSKLASGVPSRFSGSGSGTDYTFTISSLEAEDAATYYCQQWTTNPLTFGQGTKVEIK
18 | 1400 pM | 4.2 fold | humanized TMC-2206 variant hVH1.0/hVL4.0 (antibody, human IgG1, V domains shown, human IgG1/κ constant regions) VH: QVQLQESGPGLVKPSETLSLTCTVSGFSLTNYGIHWVRQPPGKGLEWLGVIWARGFTNYNSALMSRLTISKDNSKNQVSLKLSSVTAADTAVYFCARANDGVYYAMDYWGQGTLVTVSS VL: DVVMTQSPAFLSVTPGEKVTITCSANSSVNYIHWYQQKPDQAPKKWIYDTSKLASGVPSRFSGSGSGTDYTFTISSLEAEDAATYYCQQWTTNPLTFGQGTKVEIK

Reference: patent US20070128190A1 (GLENMARK PHARMACEUTICALS S A, published 2007)
